According to patent US20200179510A1, “LOW DENSITY LIPOPROTEIN RECEPTOR RELATED PROTEIN 5 INHIBITION SUPPRESSES TUMOR FORMATION” (YALE UNIVERSITY, priority 2017, published 2020):

What was measured:
[1] = system: tumor infiltrated leukocytes (CD8+ and NK1.1+ cells); assay: Flow cytometry of tumor infiltrated leukocytes, MC38 tumors; format: in vivo, mouse; details: MC38, intratumoral DKK2 protein 600 ng/25 μl/tumor, three times every 8 hours
Description: Tumors were minced using scissors and scalpel blades and incubated with a digestion buffer [RPMI1640, 5% FBS, 1% PS, 25 mM HEPES and 300 U collagenase (Sigma C0130)] in a shaker for 2 h at 37° C. Disperse cells were filtered through a 70 μm cell strainer to eliminate clumps and debris. After centrifugation for 5 minutes (500×g) at 4° C., cell pellets were resuspended in the Red Blood Cell Lysis Buffer (Sigma R7757) and incubated at RT for 5 min to remove erythrocytes. Cells were pelleted again, resuspended and incubated in 0.05% Trypsin/EDTA at 37° C. for 5 min, followed by DNA digestion with the addition of Type I DNase (1 μg/ml final, Sigma D4263) for 5 min. Trypsin digestion was stopped by the addition of FBS to 5%, and cells were filtered again by a 40 μm cell strainer. Finally, the cells were pelleted again and resuspended in PBS at a concentration of […].
Cells in single cell suspension were fixed with 2% PFA (Santa-Cruz sc-281692). After washing with a Flow Cytometry Staining Buffer (eBioscience 00-4222-26), cells were stained with antibodies for cell surface markers for 1 hour on ice in the dark. For staining of intracellular proteins, the cells were washed and resuspended in the Permeabilization Buffer (BD 554723) and stained by antibodies in the Permeabilization Buffer for 1 hour on ice in the dark. […]

LRP6 = target: T1, LRP6 (Homo sapiens, UniProt O75581); assay: LRP internalization assay, LRP6; format: cell-based; details: HEK293 cells, DKK2 4 nM
T1 construct: endogenous in cells; host or cells: HEK293
T1 sequence (O75581 20-1613): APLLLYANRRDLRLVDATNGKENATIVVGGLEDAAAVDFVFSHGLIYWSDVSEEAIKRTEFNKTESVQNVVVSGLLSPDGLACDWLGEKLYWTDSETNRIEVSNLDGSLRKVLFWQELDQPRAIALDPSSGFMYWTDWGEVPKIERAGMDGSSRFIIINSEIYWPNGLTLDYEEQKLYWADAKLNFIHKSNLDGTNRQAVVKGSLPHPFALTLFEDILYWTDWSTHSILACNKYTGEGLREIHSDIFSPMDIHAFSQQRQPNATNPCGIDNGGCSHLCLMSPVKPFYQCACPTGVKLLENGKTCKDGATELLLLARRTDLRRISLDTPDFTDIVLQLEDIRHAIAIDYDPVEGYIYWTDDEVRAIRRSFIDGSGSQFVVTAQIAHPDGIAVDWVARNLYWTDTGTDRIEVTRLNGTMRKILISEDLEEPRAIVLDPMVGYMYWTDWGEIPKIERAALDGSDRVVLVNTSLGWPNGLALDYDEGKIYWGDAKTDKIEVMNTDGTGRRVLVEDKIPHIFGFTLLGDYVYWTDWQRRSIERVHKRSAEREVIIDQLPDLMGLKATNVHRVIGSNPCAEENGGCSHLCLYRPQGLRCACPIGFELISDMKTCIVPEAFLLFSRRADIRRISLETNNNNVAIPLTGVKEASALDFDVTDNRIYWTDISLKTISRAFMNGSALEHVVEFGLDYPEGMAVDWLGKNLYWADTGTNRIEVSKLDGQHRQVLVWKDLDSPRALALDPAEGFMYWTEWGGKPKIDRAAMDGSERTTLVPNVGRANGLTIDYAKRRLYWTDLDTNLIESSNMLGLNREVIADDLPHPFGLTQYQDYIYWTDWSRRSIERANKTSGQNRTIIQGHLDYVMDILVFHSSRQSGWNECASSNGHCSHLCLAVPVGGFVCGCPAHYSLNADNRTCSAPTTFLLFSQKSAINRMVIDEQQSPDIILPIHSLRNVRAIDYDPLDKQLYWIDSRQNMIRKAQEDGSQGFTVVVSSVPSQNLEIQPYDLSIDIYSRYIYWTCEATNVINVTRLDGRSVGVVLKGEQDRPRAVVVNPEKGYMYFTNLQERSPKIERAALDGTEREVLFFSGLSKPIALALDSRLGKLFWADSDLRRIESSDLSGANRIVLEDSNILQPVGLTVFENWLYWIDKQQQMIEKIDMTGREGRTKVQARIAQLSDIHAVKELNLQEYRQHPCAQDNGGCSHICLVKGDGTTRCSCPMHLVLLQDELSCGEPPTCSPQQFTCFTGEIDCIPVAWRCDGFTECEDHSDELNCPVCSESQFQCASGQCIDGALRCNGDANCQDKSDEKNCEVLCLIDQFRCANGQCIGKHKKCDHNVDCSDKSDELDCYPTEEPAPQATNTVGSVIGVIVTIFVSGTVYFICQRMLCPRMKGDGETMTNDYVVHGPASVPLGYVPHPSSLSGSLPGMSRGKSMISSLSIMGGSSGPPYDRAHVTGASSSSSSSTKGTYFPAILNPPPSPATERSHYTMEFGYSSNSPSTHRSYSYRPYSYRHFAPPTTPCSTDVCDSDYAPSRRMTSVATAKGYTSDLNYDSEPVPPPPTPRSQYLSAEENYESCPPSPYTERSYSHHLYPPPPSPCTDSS
Description: (§1) HEK293 cells were treated with mock or recombinant mouse DKK2 protein (4 nM) in culture medium for duration indicated. The cells were washed with pre-cold PBS and cell surface proteins were biotinylated with 0.5 mg/ml of EZ-Link Sulfo-NHS-SS-Biotin (Thermo Fisher, 21445) in a PBS buffer on ice for 30 min. The reaction was stopped by addition of PBS containing ice-cold 50 mM NH4Cl, followed by repeated washes with ice-cold PBS. The cells were then lysed with in a buffer containing 1.25% Triton X-100, 0.25% SDS, 50 mM Tris HCl PH8.0, 150 mM NaCl, 5 mM EDTA, 5 mg/ml iodoacetamide, 10 ug/ml PMSF, and the Roche proteinase inhibitor cocktail. After centrifugation, aliquots were taken as lysate controls, and the rest of supernatants were used in pull-down with NeutrAvidin beads (Thermo Fisher, 29200), followed by analysis by Western blotting.

[2] = system: mouse primary CD8+ T cells; assay: Mouse primary CD8+ T cells; format: cell-based
Description: (§2) Mouse primary NK and CD8+ T cells were isolated from the spleens by using the NK cell and CD8+ T cell isolation kits according to the manufacturer's instructions (Miltenyi Biotec #130-090-864 and #130-104-075), respectively. Primary NK cells were cultured in RPMI-1640 (Gibco, 11875-093) supplemented with 10% FBS, penicillin (100 U/ml), streptomycin (100 μg/ml), 2-mercaptoethanol (500 μM) and HEPES (10 mM) at 37° C. supplemented with 5% CO2 in the presence of recombinant murine IL-15 (50 ng/ml) for 24 hours before treatment with DKK2, CHIR99021, or WNT3A. CD8+ T cells were cultured in the same culture medium and condition as NK cells, but supplemented with IL-15 (200 ng/ml) and IL-15 Rα (1 μg/ml recombinant Mouse IL-15 receptor alpha Fc chimera Protein from R&D) for 96 hours before DKK2 treatment. Mouse primary intraepithelial lymphocytes (IELs) were prepared as described in (Little et al., The Journal of Immunology 175, 6713-6722 (2005) and Li et al. Infect Immun 80, 565-574 (2012)). […]

[3] = system: phospho-STAT5 nuclear localization; assay: Immunocytostaining of phospho-STAT5 localization in NK cells; format: cell-based, mouse
Description: They were then placed on poly-lysine coated coverslips and incubated for 30 min at room temperature. Cells were fixed with 4% PFA for 10 min at room temperature and permeabilized with ice-cold methanol for 10 min at −20° C. After rinsed with PBS for 3 times, cells were blocked with a blocking buffer (5% normal donkey serum and 0.5% triton in PBS) for 1 hr at room temperature. Primary antibodies were then diluted in PBS with 0.5% BSA and applied to cells with overnight incubation at 4° C. Cells were rinsed with PBS for 3 times and incubated with diluted fluorochrome-conjugated secondary antibodies (in PBS with 1% BSA) for 1 hr at room temperature. Finally, cells were rinsed with PBS for 3 times and mounted with Prolong Gold Antifade solution (Thermo Fisher) for confocal microscopy.

human NK cells = assay: Human NK cells cultured with IL-15; format: cell-based; details: human IL-15 50 ng/ml, 10 nM human DKK2, 24 hour
Description: Peripheral blood mononuclear cells from normal humans were purchased from ZenBio (SER-PBMC-200). Human NK cells were isolated from the PBMCs by using the human NK cell isolation kit according to the manufacturer's instruction (Miltenyi Biotec #130-092-657). Human NK cells were cultured in RPMI-1640 (Gibco, 11875-093) supplemented with 10% heat-inactivated FBS, penicillin (100 U/ml), streptomycin (100 μg/ml), 2-mercaptoethanol (500 μM) and HEPES (10 mM) at 37° C. supplemented with 5% CO2 in the presence of recombinant human IL-15 (50 ng/ml) before treatment with recombinant human DKK2 protein.

primary mouse NK cells = assay: IL-15-cultured primary mouse NK cells (flow cytometry, Western); format: cell-based
Description: Cells in single cell suspension were fixed with 2% PFA (Santa-Cruz sc-281692). After washing with a Flow Cytometry Staining Buffer (eBioscience 00-4222-26), cells were stained with antibodies for cell surface markers for 1 hour on ice in the dark. For staining of intracellular proteins, the cells were washed and resuspended in the Permeabilization Buffer (BD 554723) and stained by antibodies in the Permeabilization Buffer for 1 hour on ice in the dark. The cells were then pelleted and resuspended in the Flow Cytometry Staining Buffer for flow cytometry analysis.
Mouse primary NK and CD8+ T cells were isolated from the spleens by using the NK cell and CD8+ T cell isolation kits according to the manufacturer's instructions (Miltenyi Biotec #130-090-864 and #130-104-075), respectively. Primary NK cells were cultured in RPMI-1640 (Gibco, 11875-093) supplemented with 10% FBS, penicillin (100 U/ml), streptomycin (100 μg/ml), 2-mercaptoethanol (500 μM) and HEPES (10 mM) at 37° C. supplemented with 5% CO2 in the presence of recombinant murine IL-15 (50 ng/ml) for 24 hours before treatment with DKK2, CHIR99021, or WNT3A. CD8+ T cells were cultured in the same culture medium and condition as NK cells, but supplemented with IL-15 (200 ng/ml) and IL-15 Rα (1 μg/ml recombinant Mouse IL-15 receptor alpha Fc chimera Protein from R&D) for 96 hours before DKK2 treatment. Mouse primary intraepithelial lymphocytes (IELs) were prepared as described in (Little et al., The Journal of Immunology 175, 6713-6722 (2005) and Li et al. Infect Immun 80, 565-574 (2012)). In brief, the small intestine was everted, divided into four pieces, and washed twice in phosphate-buffered saline (PBS) containing 100 U/ml penicillin/streptomycin The specimens were then incubated with stirring at 37° C. in prewarmed Ca2+ and Mg2+-free Hanks' solution containing 100 U/ml penicillin-streptomycin, 5% fetal calf serum (FCS), 2 mM dithiothreitol (DTT), and 5 mM EDTA for 30 min, followed by vigorous shaking for 30 s. The supernatants were passed over two nylon wool columns to remove undigested tissue debris. The lymphocytes obtained were pooled and enriched on a discontinuous (40% and 70%) Percoll density gradient. Cells at the interface between the 40% and […], fractions (IELs) were collected for treatment with IL-15 (200 ng/ml) and DKK2 (200 ng/ml), followed by flow analysis.

[4] = system: primary mouse NK cells with MC38 or YUMM1.7 cells; assay: NK and tumor cell co-culture; format: cell-based; details: NK cells pre-treated with DKK2 8 nM 24 hrs, MC38 7:1
Description: Primary NK cells were isolated from the spleens as described above and cultured in the presence of 50 ng/ml recombinant murine IL-15 for 24 hours. Meanwhile, tumor cells were plated in the 96 well plate for overnight. NK cells were added into the tumor cells at 7:1 radio in the presence of the IgG3 antibody or anti-DKK2 5F8 for 9 hours at 37° C. For testing the effect of DKK2 in co-culture, isolated NK cells were cultured in the presence of 50 ng/ml recombinant murine IL-15 for 24 hours and then cultured in the presence or absence of DKK2 for another 24 hours before the NK cells were added to pre-seeded MC38 cells at 7:1 (NK:MC38) radio. The numbers of live tumor cells were determined by a Guava flow cytometer (EMDmillipore), whereas the cell apoptosis was assessed by flow cytometry using an Annexin V apoptosis detection kit (eBioscience, 88-8007).

LRP5 = target: T2, LRP5 (Homo sapiens, UniProt O75197); assay: LRP internalization assay, LRP5; format: cell-based; details: HEK293 cells, DKK2 4 nM
T2 construct: endogenous in cells; host or cells: HEK293
T2 sequence (O75197 32-1615): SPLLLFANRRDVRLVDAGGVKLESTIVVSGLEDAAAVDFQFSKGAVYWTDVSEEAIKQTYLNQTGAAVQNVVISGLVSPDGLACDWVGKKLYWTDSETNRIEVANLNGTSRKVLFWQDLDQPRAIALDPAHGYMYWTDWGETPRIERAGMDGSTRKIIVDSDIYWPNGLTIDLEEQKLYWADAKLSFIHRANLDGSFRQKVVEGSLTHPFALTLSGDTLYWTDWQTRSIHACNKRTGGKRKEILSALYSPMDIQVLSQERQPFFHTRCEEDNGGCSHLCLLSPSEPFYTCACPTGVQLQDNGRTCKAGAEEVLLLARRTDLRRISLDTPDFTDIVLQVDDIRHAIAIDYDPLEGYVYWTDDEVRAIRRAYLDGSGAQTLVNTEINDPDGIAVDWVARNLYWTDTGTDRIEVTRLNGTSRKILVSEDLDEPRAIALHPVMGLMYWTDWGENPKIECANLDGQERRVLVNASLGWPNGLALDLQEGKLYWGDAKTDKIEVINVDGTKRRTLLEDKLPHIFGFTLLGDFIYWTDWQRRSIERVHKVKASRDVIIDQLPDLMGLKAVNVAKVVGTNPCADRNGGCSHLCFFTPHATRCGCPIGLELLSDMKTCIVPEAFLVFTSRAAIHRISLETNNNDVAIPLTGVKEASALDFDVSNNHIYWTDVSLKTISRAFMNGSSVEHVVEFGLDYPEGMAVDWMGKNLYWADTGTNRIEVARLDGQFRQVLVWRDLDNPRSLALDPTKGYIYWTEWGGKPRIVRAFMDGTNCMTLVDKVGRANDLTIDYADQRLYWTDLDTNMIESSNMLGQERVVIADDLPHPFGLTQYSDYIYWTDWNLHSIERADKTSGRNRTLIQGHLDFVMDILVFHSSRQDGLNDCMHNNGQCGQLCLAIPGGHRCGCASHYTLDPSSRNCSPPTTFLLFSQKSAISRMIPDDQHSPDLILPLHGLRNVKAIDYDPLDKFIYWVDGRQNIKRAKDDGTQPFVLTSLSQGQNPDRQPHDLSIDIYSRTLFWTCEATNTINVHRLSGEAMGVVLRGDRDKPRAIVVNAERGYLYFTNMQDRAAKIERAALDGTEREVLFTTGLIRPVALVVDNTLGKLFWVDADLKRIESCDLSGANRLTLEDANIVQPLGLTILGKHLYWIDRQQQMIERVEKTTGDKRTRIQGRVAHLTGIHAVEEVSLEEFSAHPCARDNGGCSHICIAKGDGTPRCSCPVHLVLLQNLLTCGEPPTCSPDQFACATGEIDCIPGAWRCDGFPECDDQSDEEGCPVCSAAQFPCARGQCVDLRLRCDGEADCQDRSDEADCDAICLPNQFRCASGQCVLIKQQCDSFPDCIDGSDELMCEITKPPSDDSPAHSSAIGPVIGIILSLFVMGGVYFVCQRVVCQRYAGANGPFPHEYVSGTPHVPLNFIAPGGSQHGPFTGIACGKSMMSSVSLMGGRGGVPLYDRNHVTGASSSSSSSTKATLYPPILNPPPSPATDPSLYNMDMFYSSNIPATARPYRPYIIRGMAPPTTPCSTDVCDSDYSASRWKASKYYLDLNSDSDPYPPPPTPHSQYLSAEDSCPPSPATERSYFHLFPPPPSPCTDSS
Description: as §1

[5] = system: CD8+ intraepithelial cells from intestines; assay: Mouse primary intraepithelial lymphocytes; format: cell-based; details: IL-15, 10 nM DKK2, 24 hour
Description: as §2

[6] = system: Wnt reporter gene TOPFlash; assay: Wnt reporter gene (TOPFlash) assay in HEK293 cells; format: cell-based
Description: The Stat5 reporter assays were done in HEK293T cells for activated JAK1-induced activity or in those stably expressing JAK3, IL2/15Rβ and the common receptor γ subunit for IL15 induced activity. Cells were seeded at 8×10^4 cells per well in 48 well plate. The next day, cells were transfected by Lipofectamine 2000 (Invitrogen) with the pGL4.52-STAT5-Luciferase (Promega) and tagRFP (internal control) plasmids together with other plasmids expressing genes of interest. The total amount of plasmid was kept at 125 ng per well. The cells were added 24 hours after transfection with IL15/IL15Rα-Fc complex or mock. Six hours later, the cells were lysed and subjected to RFP fluorescence and luciferase luminescence measurement using an Envision Multilabel plate reader. The reporter gene activity is shown after being normalized against RFP readings. The LEF reporter assay was carried out in HEK293 cells that were transfected with the TOPFlash and GFP plasmids. The rest is the same as above. The reporter gene activity is shown after being normalized against GFP readings.
A functional mouse monoclonal anti-DKK2 antibody (5F8) was developed to specifically target and neutralize DKK2, but to not cross react with DKK-1. […]

B1: DKK2: Recombinant Dickkopf 2 protein (mouse; human for human NK cells), also used as conditioned medium (protein)
chain: KLNSIKSSLGGETPAQSANRSAGMNQGLAFGGSKKGKSLGQAYPCSSDKECEVGRYCHSPHQGSSACMLCRRKKKRCHRDGMCCPGTRCNNGICIPVTESILTPHIPALDGTRHRDRNHGHYSNHDLGWQNLGRPHSKMPHIKGHEGDPCLRSSDCIDGFCCARHFWTKICKPVLHQGEVCTKQRKKGSHGLEIFQRCDCAKGLSCKVWKDATYSSKARLHVCQKI
tumor immune responses elicited by PD-1 blockade [1]: inhibited PD-1 blockade-induced increases in the numbers of tumor-infiltrated CD45+ and CD8+ cells and activation of CD8+ and NK cells | internalization of LRP6 (LRP6): not LRP6 | T cell receptor-mediated activation of primary T cells [2]: does not inhibit T cell receptor-mediated activation | IL-15-mediated activation of mouse primary CD8+ T cells ([2]; IL-15+IL15Rα-Fc 4 days, DKK2 10 nM 24 hours): directly suppresses mouse primary CD8+ | co-localization of phospho-STAT5 with EEA1 ([3]; DKK2-treated NK cells): partially co-localized with early endosome marker | localization of phospho-STAT5 in NK cells ([3]; IL-15, DKK2-treated primary NK cells): cytosolic localization of phospho-STAT5 was readily detected | phospho-STAT5 nuclear localization in NK cells lacking LRP5 ([3]; LRP5-/- NK cells): failed to cause impairment of phospho-STAT5 nuclear localization | granzyme B expression in human NK cells (human NK cells): inhibit granzyme B expression in human NK cells | granzyme B (Western) (primary mouse NK cells; DKK2-treated samples): reduced granzyme B | perforin (Western) (primary mouse NK cells; DKK2-treated samples): reduced perforin | phosphorylated STAT5, ERK and AKT stimulated by IL-15 (primary mouse NK cells; DKK2 treatment, Western): No notable changes in phosphorylated STAT5, ERK, and AKT | dose dependence of inhibition of NK cell activation (primary mouse NK cells; FIG. 4F): dose-dependent | granzyme B and NK activation markers (primary mouse NK cells; IL-15 50 ng/ml 24 hrs, then DKK2 8 nM 24 hours): significant reductions in granzyme B as well as a number of other NK activation markers, including CD69, IFNY, CD107a, and CD314 | activation of LRP5-deficient NK cells (primary mouse NK cells; LRP5-/- NK cells): failed to inhibit | activation of primary NK cells lacking LRP6 (primary mouse NK cells; Lrp6-/- NK cells): could still inhibit the activation | ability of pre-treated NK cells to cause tumor cell apoptosis and death [4]: reduced ability to cause tumor cell apoptosis and death | internalization of LRP5 (LRP5): induces internalization of LRP5 | activation of CD8+ intraepithelial cells [5]: directly suppresses | Wnt reporter gene activity ([6]; DKK2 5 nM, Wnt3a 2 nM, CHIR 1 μM, 6 hrs (FIG. 10D)): inhibited | Wnt reporter activity ([6]; HEK293, TOPFlash, conditioned medium (FIG. 1E)): inhibited Wnt signaling
